For one protein, Km results are on record in patent US5276170A, “Azido-substituted aromatic amino acids” (The United States of America as represented by the …, priority 1992, dated 1994).

Substrate in the data set: [N-]=[N+]=Nc1cc(O)ccc1C[C@H](N)C(=O)O
Put plainly: Tyrosine phenol-lyase catalyzed hydrolytic cleavage to ammonium pyruvate and 3-azidophenol. To be noted: other: as substrate. Type of data set: biochemical.

B1: tyrosine phenol-lyase (Citrobacter freundii) (protein)
chain: MNYPAEPFRIKSVETVSMIPRDERLKKMQEAGYNTFLLNSKDIYIDLLTDSGTNAMSDKQWAGMMMGDEAYAGSENFYHLERTVQELFGFKHIVPTHQGRGAENLLSQLAIKPGQYVAGNMYFTTTRYHQEKNGAVFVDIVRDEAHDAGLNIAFKGDIDLKKLQKLIDEKGAENIAYICLAVTVNLAGGQPVSMANMRAVRELTEAHGIKVFYDATRCVENAYFIKEQEQGFENKSIAEIVHEMFSYADGCTMSGKKDCLVNIGGFLCMNDDEMFSSAKELVVVYEGMPSYGGLAGRDMEAMAIGLREAMQYEYIEHRVKQVRYLGDKLKAAGVPIVEPVGGHAVFLDARRFCEHLTQDEFPAQSLAASIYVETGVRSMERGIISAGRNNVTGEHHRPKLETVRLTIPRRVYTYAHMDVVADGIIKLYQHKEDIRGLKFIYEPKQLRFFTARFDYI
B1: the Michaelis constant (Km) – broadly, the concentration of substrate that gives half-maximal velocity – was 1000 µM.
